B1: IgG2-AAS(341) antibody (antibody)
heavy: QVQLQQSGPGLVKPSQTLSLTCAISGDSVSSNSATWNWIRQSPSRDLEWLGRTYYRSKWYRDYVGSVKSRIIINPDTSNNQFSLQLNSVTPEDTAIYYCTRAQWLGGDYPYYYSMDVWGQGTTVTVSSASTKGPSVFPLAPCSRSTSESTAALGCLVKDYFPEPVTVSWNSGALTSGVHTFPAVLQSSGLYSLSSVVTVPSSNFGTQTYTCNVDHKPSNTKVDKTVERKCCVECPPCPAPPAAAPSVFLFPPKPKDTLMISRTPEVTCVVVDVSHEDPEVQFNWYVDGVEVHNAKTKPREEQFNSTFRVVSVLTVVHQDWLNGKEYKCKVSNKGLPASIEKTISKTKGQPREPQVYTLPPSREEMTKNQVSLTCLVKGFYPSDIAVEWESNGQPENNYKTTPPMLDSDGSFFLYSKLTVDKSRWQQGNVFSCSVMHEALHNHYTQKSLSLSPGK
light: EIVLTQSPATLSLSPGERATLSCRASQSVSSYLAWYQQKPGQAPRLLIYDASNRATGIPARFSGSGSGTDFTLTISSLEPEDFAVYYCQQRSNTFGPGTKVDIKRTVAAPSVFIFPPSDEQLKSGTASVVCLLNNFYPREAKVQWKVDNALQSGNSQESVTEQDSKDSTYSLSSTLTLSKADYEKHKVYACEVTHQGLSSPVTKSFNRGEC
notes: kappa light chain; Signal peptides (1-20 of each chain, estimated by SignalP) are left out; Expressed transiently in 293 cells and purified on protein A
B2: IgG2-S(341) antibody (antibody)
heavy: QVQLQQSGPGLVKPSQTLSLTCAISGDSVSSNSATWNWIRQSPSRDLEWLGRTYYRSKWYRDYVGSVKSRIIINPDTSNNQFSLQLNSVTPEDTAIYYCTRAQWLGGDYPYYYSMDVWGQGTTVTVSSASTKGPSVFPLAPCSRSTSESTAALGCLVKDYFPEPVTVSWNSGALTSGVHTFPAVLQSSGLYSLSSVVTVPSSNFGTQTYTCNVDHKPSNTKVDKTVERKCCVECPPCPAPPVAGPSVFLFPPKPKDTLMISRTPEVTCVVVDVSHEDPEVQFNWYVDGVEVHNAKTKPREEQFNSTFRVVSVLTVVHQDWLNGKEYKCKVSNKGLPASIEKTISKTKGQPREPQVYTLPPSREEMTKNQVSLTCLVKGFYPSDIAVEWESNGQPENNYKTTPPMLDSDGSFFLYSKLTVDKSRWQQGNVFSCSVMHEALHNHYTQKSLSLSPGK
light: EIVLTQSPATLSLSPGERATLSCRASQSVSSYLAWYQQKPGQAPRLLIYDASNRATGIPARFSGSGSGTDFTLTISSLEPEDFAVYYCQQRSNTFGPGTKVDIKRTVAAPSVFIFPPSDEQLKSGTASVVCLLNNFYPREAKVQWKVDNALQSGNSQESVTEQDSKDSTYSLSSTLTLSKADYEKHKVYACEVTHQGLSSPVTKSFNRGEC

Target: T1, human CD40 (human, UniProt P25942 21-277)
T1 construct: Endogenous CD40 on Ramos cells (ATCC CRL-1596), 'which expresses human CD40'
Experiment: flow cytometry (FACS, MFI) on Ramos cells expressing human CD40, R-PE anti-human antibody detection
Experimental: The Ramos cell line was suspended in staining buffer (SB) of PBS containing 0.1% NaN₃, 2 mM EDTA, and 2% FCS at a density of […]. The cell suspension (100 μL/well) was dispensed into a 96-well round-bottom plate (manufactured by Becton Dickinson). The purified antibody (50 μL) was added thereto, followed by incubation at ice temperature for 30 minutes. As negative control, an anti-human IgG2 antibody against 2,4-dinitrophenol was used and the purified antibodies (50 μL) were similarly added, followed by incubation at ice temperature for 15 minutes. After the cells were washed with SB, 50 μL of 250-fold diluted R-PE fluorescence-labeled anti-human antibodies (manufactured by Southern Biotechnology) was added thereto, followed by incubation at ice temperature for 15 minutes. The cells were washed twice with SB and suspended in 300 to 500 μL of FACS buffer. And the fluorescence intensity (MFI) of individual cells was measured by FACS (FACScalibur, manufactured by Becton Dickinson).

T1 sequence (P25942 21-277 limits assumed): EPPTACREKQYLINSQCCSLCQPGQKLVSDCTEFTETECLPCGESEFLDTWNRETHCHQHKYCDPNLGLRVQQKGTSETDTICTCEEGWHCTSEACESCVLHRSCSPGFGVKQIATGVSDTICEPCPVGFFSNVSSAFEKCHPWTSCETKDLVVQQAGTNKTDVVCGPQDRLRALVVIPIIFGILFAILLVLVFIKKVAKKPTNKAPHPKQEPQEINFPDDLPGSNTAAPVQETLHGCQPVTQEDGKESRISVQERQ

Row | binding result | Binder
1 | binds | B1
2 | binds | B2

Source: patent US20160075792A1 (Kyowa Kirin, published 2016)
